This is an account of results in the RNAGym collection of RNA variant scans (doi:10.1073/pnas.2313332121).

B1: TPR t1 (parent)
chain: GACCAAUCUGCCCUCAGAGCUCGAGAACAUCUUCGGAUGCAGAGGAGGCAGGCUUCGGUGGCGCGAUAGCGCCAACGUCCUCAACCUCCAAUGCAUCCCACCACAUGAUGAUGCCUGAAGAGCCUUGGUUUUUUG

Variants of B1 are the subject of this series. The series can be described thus: polymerase ribozyme fitness, log enrichment relative to wild type (log ratio); higher = more active; in vitro selection for triplet polymerase activity. The method, boiled down:
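Fitness is a logarithmic measure of how a genotype enriched relative to the wild type, with replicate averages weighted by inverse variance. The logarithm uses base 2, and enrichment came from Illumina sequencing of input and output libraries. Those libraries were PCR-built, transcribed mutants of each subunit of a heterodimeric triplet polymerase ribozyme, passed through one triplicate in vitro selection round that included frozen incubation at −7 °C, gel excision of extended constructs and streptavidin-bead capture. Genotypes were kept only if they had ≥10 input reads and ≥1 read per output.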
With GACCAAUCUGCCCUAAGAGCUCGAGAACAUCUUCGGAUGCAGAGGAGGCAGGUUUCGGUGGCGCGAUAGCGCCAACGUCCUCAACCUCCAAUGCAUCCCACCACAUGAUGAUGCCUGAAGAGCCUUGGUUUUUUG [C15A C53U], the “polymerase ribozyme fitness (log ratio)” value is -1.61.
For GACCAAUCUGCCCUAAGAGCUCGAGAACAUCUUCGGAUGCAGAGGUGGCAGGCUUCGGUGGCGCGAUAGCGCCAAUGUCCUCAACCUCCAAUGCAUCCCAUCACAUGAUGAUGCUUGAAGAGCCUUGGUUUUUUG [C15A A46U C76U C101U C115U], the “polymerase ribozyme fitness (log ratio)” value was -4.21.
With GACCAAUCUGCCCUAAGAGUUCGAGAACAUCUUCGGAUGCAGAGGAGGCAGGCUUCGAUGGCGCGAUAGCGCCAACGUCCUCAACCGCCCAUGCAUCCCACCACAUGAUGAUGGCUGAAGAGCCUUGGUUUUUUG [C15A C20U G58A U87G A90C C114G], the “polymerase ribozyme fitness (log ratio)” value is -4.17.
On to GACCAAUCUGCCCUAAGAGCUCGAGAACAUCUUCGGAUGCAGAGGCGGCAGCCUUCGGUGGCGCGAUAGCGCCAACGUCCUCAACCUCCAUUGCAUCCCACCACAUGAUGAUGCCUGAAGAGCCUUGGGUUUUUG [C15A A46C G52C A91U U129G], for which the “polymerase ribozyme fitness (log ratio)” value is -6.42.
As for GACCAAUCUGCCCUAAGAGCUCGAGAAGAUCUUCGGAUGCAGAGGAGGCAGGCUUCGGUGACGCGAUAGCGCCAACGUCCUCAACCUCCAAUGCAUCCCACCACAUGAUGAUGCCUGAAAAGCCUUGGUUUUUUG [C15A C28G G61A G120A], the “polymerase ribozyme fitness (log ratio)” value was -2.11.
As to GACCAAUCUGCCCUAAGAGGUCGAGAACAUCUUCGGAUGCAGAGGAGGCAGGCUUCGGUGGCGCGAUAGCUCCAACGUCCUCAACCUCCACUGCAUCGCACCACAUGAUGAUGCCUGAAGAGUCUUGGUUUUGUG [C15A C20G G71U A91C C98G C123U U133G], the “polymerase ribozyme fitness (log ratio)” value was -4.96.
Regarding GACCAAUCUGCCCUAAGAGCUCGAGAACAUCUUCGGAUGCAGGGGAGGCAGGCUUCGGUGGCGCGAUAGCGCCAACGUCCUCAACCUCCAAUGCACCCCACCACAUGAUGACGCCUGAAGAGCCUUGGUUUUUUG [C15A A43G U96C U112C], the “polymerase ribozyme fitness (log ratio)” value is -2.05.
Under GACCAAUCUGCCCUAAGAGCUCGAGAACAUCUUCGGAUGCAGAGGAGGCAGGCUUCGGUGGCGCGAUAGCGCCAACGUCCUCAACCUCCAAUGCAUCCCACCACAUGAUGUUGCCUGAAGAGCCUUGGUUUUUUG [C15A A111U] stands -5.13; under GACCAAUCUGCCCUAAGAGCUCGAGAACAUCUUCGGAUGCAGAGGAGGUAGGCUUCGGUGGCGCGAUAGCGCCAACGUCCUCAACCUCCUAUGCAUCCCACCACAUGGUGAUGGCUGAAGAGCCUUGGUUUUUUG [C15A C49U A90U A108G C114G], -6.22.
Consider GACCAAUCUGCCCUAAGAGCUCGAGAACAUCUUCGGAUGCAGAGGAGGCAGGCUUCGGUGGCGCGAUAGCGCCAACGUCCUCAACCUCCAAUGCAUCCCACCACAUGAUGAUGCCUGGAGAGCCUUGGUUUUUUG [C15A A118G], for which the “polymerase ribozyme fitness (log ratio)” value was -2.6.
As to GACCAAUCUGCCCUAAGAGCUCGAGAACAUCUUCGGUUGCAGAGGAGGCAGGCUUCAGUGCCGCGAUAGCGCCAACGUCCUCAACCUCCAAUGCAUCCCACCACAUGAUGAUGCCUGAAGAGCCUUGGUUUUUUG [C15A A37U G57A G61C], the “polymerase ribozyme fitness (log ratio)” value is -3.97.
For the variant GACCAAUCUGCCCUAAGAGCUCGAGAACAUCUUCGGAUGUAGAGGAGGCAGGCUUCGGUGGCGCGAUAGCGCCAACGUCCUCAACCUCCAAUGCAUCCCACCACAUGAUGAUGCCUGAACAGCCUUGGUUUUUUG [C15A C40U G120C], the “polymerase ribozyme fitness (log ratio)” value was -0.554.
Under GACCAAUCUGCCCUAAGAGCUCGAGAACAUCUUCGGAUGCAGUGGAGGCAGGCUUCGGUGGCGCGAUAGCGCCAACGUCCUCAACCUCCAAUGCAUCCCACCACAUGAUGAUGCCUGAAGAGCCUUGGUUUUUUG [C15A A43U] stands -3.28.
In the case of GACCAAUCUGCCCUAAGAGCUCGAGAACAUCUUCGGAUGCAGAGGAGGCAGGCUUCGGUGGCGCGAUAGCGCCAACGUCCUCAACCUCCAGUGCAUCCCACCACAUGAUGAUGCCUGAAGAGACUUGGUUUUUUG [C15A A91G C123A], the “polymerase ribozyme fitness (log ratio)” value was -2.45.
Regarding GACCAAUCUGCCCUAAGAGCUCGAGAAUAUCUUCGGAUGCAGAGGAGGCAGGCUUCGGUGCCGCGAUAGCGCCAACGUCCUCAACCUCCAAUGCAUCCCACCACAUGAUGAUGCCUGAAGAGCCUUGGUUUUUUG [C15A C28U G61C], the “polymerase ribozyme fitness (log ratio)” value was -5.32.
Then GACCAAUCUGCCCUAAGAGCUCGAGAACAUCUUCGGAUGCAGAGGUGGCAGGCUUCGGUGGCGCGAUAGCGCCAACUUCCUCAACCUCCAAUGCAUCCCACCACAUGAUGAUGCCUGAAGAGCCUUGGUUUUUUG [C15A A46U G77U], with -2.81; and GACCAAUCUGCCCUAAGAGCUCGAGAAGAUCUUCGGAUGCAGAGGAGGCAGGCUUCGGUGGCGCGAUAGCGCCAACGUCCUCAACCUCCAAUGCAUCCCACCACAUGAUGAUGCCUGAAGAGCCUUGGUUUUUUG [C15A C28G], with -4.4.
Then GACCAAUCUGCCCUAAGAGCUUGAGAACAUCUUCGGAUGCAGAGGAGGCAGGCUUCGGUGGGGCGAUAGCGCCAACGUCCUCUACCUCCAAUGCAUCACACCACAUGAUGAUGCCUGAAGAGACAUGGUUUUUUG [C15A C22U C62G A83U C98A C123A U125A], with -6.9; and GACCAAUCUGCCCUAAGAGCUCGAGAACAUCUUCGGAUGCAGAGGAGGAAGGCUGCGGUGGCGCGAUAGCGCCCACGUCCGCAACCUCCGAUGCAUCCCACCACAUGAUGAUGCCUUAAGAGCCUUGGUUUUUUG [C15A C49A U55G A74C U81G A90G G117U], with -3.52.
On to GACCAAUCUGCCCUAAGAGCUCGAGAACAUCUUCGGAUGCUGAGGAGGCAGGCUUCGGUGGCGCGAUAGCGCCAACGUCCUCAACCUCCAAUGCAUCCCACCACAUGAUGAUGCCUGAAGAGCCUUGGAUUUUUG [C15A A41U U129A], for which the “polymerase ribozyme fitness (log ratio)” value is -4.72.
Regarding GACCAAUCUGCCCUAAGAGCUCGAGAACAUCUUCGGAUGAAGAGGAGGCAGGCUUCGGUGGCGCGAUAGAGCCAACGUCCUCAACCUCCAAUGCAUUCCACCACAUGAUGAUGCCUGAAUAGCCUUGGUUUUUUG [C15A C40A C70A C97U G120U], the “polymerase ribozyme fitness (log ratio)” value is -5.14.
